The nature of series [1]: anti-FLAG WB normalised to β-actin, HeLa. Particulars: glycan lost; control: wild-type SF.
Series [2] is described as follows: WB of culture media, HeLa (data not shown). To be noted: glycan lost; control: wild-type SF.
Series [3] can be described thus: confocal colocalisation with TMEM165 and Calnexin, HeLa. To be noted: glycan lost; control: wild-type SF-eGFP.
Series [4] can be described thus: anti-Sda KM694 WB of HeLa glycoproteins, normalised. To be noted: glycan lost; control: wild-type SF.
The nature of series [5]: anisomycin chase 2-10 h, anti-FLAG WB, HeLa. To be noted: glycan lost; control: wild-type SF.
Series [6] in a line: UDP-[3H]GalNAc transfer to fetuin, COS-7 lysates, normalised. To be noted: glycan lost; control: wild-type SF.
Series [7] in a line: non-reducing SDS-PAGE and WB, dimer fraction, HeLa. Particulars: glycan lost; control: wild-type SF.

B1: SF-B4GALNT2: N77Q (protein)
parent chain: MTSGGSRFLWLLKILVIILVLGIVGFMFGSMFLQAVFSSPKPELPSPAPGVQKLKLLPEERLRNLFSYDGIWLFPKNQCKCEANKEQGGYNFQDAYGQSDLPAVKARRQAEFEHFQRREGLPRPLPLLVQPNLPFGYPVHGVEVMPLHTVPIPGLQFEGPDAPVYEVTLTASLGTLNTLADVPDSVVQGRGQKQLIISTSDRKLLKFILQHVTYTSTGYQHQKVDIVSLESRSSVAKFPVTIRHPVIPKLYDPGPERKLRNLVTIATKTFLRPHKLMIMLRSIREYYPDLTVIVADDSQKPLEIKDNHVEYYTMPFGKGWFAGRNLAISQVTTKYVLWVDDDFLFNEETKIEVLVDVLEKTELDVVGGSVLGNVFQFKLLLEQSENGACLHKRMGFFQPLDGFPSCVVTSGVVNFFLAHTERLQRVGFDPRLQRVAHSEFFIDGLGTLLVGSCPEVIIGHQSRSPVVDSELAALEKTYNTYRSNTLTRVQFKLALHYFKNHLQCAA
On to B1, for which the expression_or_secretion result is “decreases” in series [1] and “no change” in series [2]. Also, in series [3], the localisation_or_trafficking result is listed as “changes”. Further, the enzymatic_activity entry in series [4] is listed as “no change”; in series [6] it was “decreases”. The degradation_or_half_life entry in series [5] is reported as “increases”. In series [7], the oligomerisation entry is listed as “decreases”.
